Data published in patent publication US20140378663A1.

Biological target: T1, CD20 antigen on Raji lymphoblastoid B cells (UniProt P11836)
T1 sequence (looked up): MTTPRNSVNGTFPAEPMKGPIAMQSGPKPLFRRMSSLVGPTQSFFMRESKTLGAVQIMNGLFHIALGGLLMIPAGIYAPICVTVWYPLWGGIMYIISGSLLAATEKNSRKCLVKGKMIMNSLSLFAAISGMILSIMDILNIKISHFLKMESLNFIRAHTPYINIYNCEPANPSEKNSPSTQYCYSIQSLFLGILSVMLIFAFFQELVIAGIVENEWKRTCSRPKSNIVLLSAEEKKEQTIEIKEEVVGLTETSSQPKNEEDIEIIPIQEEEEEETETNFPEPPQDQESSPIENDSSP
Assay: flow cytometry on Raji cells

B1: R603 chimeric anti-CD20 antibody (LFB-R603), IgG1 with wild-type Fc (antibody, INN chains, looked up, V domains shown, part only)
VH: QAYLQQSGAELVRPGASVKMSCKASGYTFTSYNMHWVKQTPRQGLEWIGGIYPGNGDTSYNQKFKGKATLTVGKSSSTAYMQLSSLTSEDSAVYFCARYDYNYAMDYWGQGTSVTVSS
VL: QIVLSQSPAILSASPGEKVTMTCRASSSVSYMHWYQQKPGSSPKPWIYATSNLASGVPARFSGSGSGTSYSFTISRVEAEDAATYYCQQWTFNPPTFGGGTRLEIK
modifications: IgG1
Ag binding MFI (Arbitrary Unit): 123
